The series addresses MMLV RT N-terminal fragment (fingers/palm catalytic fragment) (Moloney murine leukemia virus, UniProt P03355 683-937). The experiment in a line: X-ray crystallography.

MMLV RT N-terminal fragment (fingers/palm catalytic fragment), sequence (P03355 683-937): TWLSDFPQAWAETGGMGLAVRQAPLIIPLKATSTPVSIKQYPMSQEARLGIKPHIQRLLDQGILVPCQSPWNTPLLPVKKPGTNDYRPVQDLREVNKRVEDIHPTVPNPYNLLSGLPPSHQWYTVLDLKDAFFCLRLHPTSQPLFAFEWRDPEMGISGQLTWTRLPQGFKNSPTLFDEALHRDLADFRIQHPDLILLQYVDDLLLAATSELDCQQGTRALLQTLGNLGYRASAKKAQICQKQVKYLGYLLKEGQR

B1: 16mer d(CTTAATTCGAATTAAG)2 (dsDNA)
DNA 1: CTTAATTCGAATTAAG
DNA 2: CTTAATTCGAATTAAG
Consider B1, for which the binding result is “binds”.

These data come from article PMC1181240.
